*1 amine or outer side, *2 acyl side, *3 side chain or, on linkers, in order; H or OH if unused. Bridges are numbered along the chain shown (N, C = ends). Side-chain parts run from the residue outwards. [ ]: non-standard residue; d: D form. VCPAB = valine-citrulline p-aminobenzylcarbamate linker, CC(C)[C@H](N[*:1])C(=O)N[C@@H](CCCNC(N)=O)C(=O)Nc1ccc(COC(=O)[*:2])cc1; tBuAla = CC(C)(C)C[C@H](N)C(=O)O; MMAE = monomethyl auristatin E; Tle = CC(C)(C)[C@H](N)C(=O)O; Nle = CCCC[C@H](N)C(=O)O; βAla = NCCC(=O)O; Sar = CNCC(=O)O
T1: SORT1 (Homo sapiens, UniProt Q99523)
T1 construct: Human SORT1 (78-755)-His (Acrobiosystems); His (C); purchased Acrobiosystems SON—H52H5
T1 sequence (Q99523 78-755): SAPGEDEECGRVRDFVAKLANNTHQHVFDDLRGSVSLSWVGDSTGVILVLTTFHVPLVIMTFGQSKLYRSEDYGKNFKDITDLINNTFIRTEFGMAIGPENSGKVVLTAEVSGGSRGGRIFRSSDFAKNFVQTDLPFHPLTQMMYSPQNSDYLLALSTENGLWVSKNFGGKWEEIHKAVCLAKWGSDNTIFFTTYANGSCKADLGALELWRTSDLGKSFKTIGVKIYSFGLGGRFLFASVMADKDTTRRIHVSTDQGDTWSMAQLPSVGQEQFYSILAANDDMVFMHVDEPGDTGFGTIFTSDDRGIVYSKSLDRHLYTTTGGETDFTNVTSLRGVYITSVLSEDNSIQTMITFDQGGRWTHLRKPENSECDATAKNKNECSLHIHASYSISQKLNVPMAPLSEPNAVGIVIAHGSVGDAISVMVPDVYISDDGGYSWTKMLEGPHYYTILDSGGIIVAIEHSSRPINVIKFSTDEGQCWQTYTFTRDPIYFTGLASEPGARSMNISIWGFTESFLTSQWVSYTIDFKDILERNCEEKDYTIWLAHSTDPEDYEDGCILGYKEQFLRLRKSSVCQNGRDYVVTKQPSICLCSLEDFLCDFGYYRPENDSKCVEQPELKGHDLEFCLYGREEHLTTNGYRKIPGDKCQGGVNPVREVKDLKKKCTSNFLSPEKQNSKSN

T2: Human SORT1 (78-755)-His (Acrobiosystems) (human, UniProt Q99523 78-755)
T2 construct: range 78-755; Amine-coupled to a CM5 chip in the SPR assay; not shown: His tag
T2 sequence (looked up): T1 sequence (Q99523 78-755)

B1: Arb_cyclic_G23-PDC (peptide)
peptide: Ac-RWCENK([Sar-Sar-Sar-Sar-βAla-VCPAB-MMAE])R[Nle]FTCRQ[Tle][tBuAla]-OH
modifications: disulfide 3-11
notes: C-term COOH

Key:
[1] = Murine plasma stability assay; assay type: in vitro ADME; details: mouse, 37° C., read-out: Murine plasma stability assay, T1/2
Experimental: Frozen plasma was thawed at 37° C. and centrifuged at 4000 rpm to remove any clots and transferred to 96-well reaction plates by WuXi AppTec. Test compounds were added to the reaction plate at a final concentration of 2 μM and either stopped immediately or incubated at 37° C. for 5 minutes, 10 minutes, 30 minutes, 60 minutes, or 120 minutes. At the end of incubation, stop solution consisting of 200 ng/mL tolbutamide and 200 ng/mL labetalol in ACN was added to precipitate protein and mixed thoroughly. Samples were then transferred to a bioanalysis plate and shaken for 10 minutes prior to HPLC-MS/MS analysis of percent remaining compound.

MDA-MB-231 tumor cells = test: MDA-MB-231 murine xenograft efficacy model; assay type: in vivo, BALB/c Nude mice; details: for tumor growth inhibited relative to vehicle: 3 mg/kg i.v. QW×4, day 22 (Example 8); for body weight loss: Example 8, PDC 3 mg/kg, free MMAE 0.6 mg/kg, i.v. QW×4
Experimental: Murine xenograft experiments were conducted at WuXi AppTec and/or Charles River Laboratories and the care and use of animals was conducted in accordance with the regulations of the Association for Assessment and Accreditation of Laboratory Animal Care (AAALAC). MDA-MB-231 tumor cells (ATCC, Manassas, VA, cat #HTB-26) were grown and maintained in L15 medium supplemented with 10% heat inactivated fetal bovine serum, 1% Antibiotic-Antimycotic, and L-glutamine (2 mM) at 37° C. in an atmosphere in 5% CO2, 95% air. BALB/c Nude, female, 6-8 weeks, weighing approximately 18-22 g were purchased from Vital River Laboratory Animal Technology Co., LTD. Mice were inoculated subcutaneously at the right flank with MDA-MB-231 tumor cells (e.g., triple negative breast cancer cells) (10×10^6) in 0.2 mL of PBS with Matrigel (1:1) for tumor development. Animals were randomized and treatment was started when the average tumor volume reached approximately 150-200 mm^3 for the efficacy study. Dosing volume was adjusted based on body weight and was administered at 10 ml/Kg. […] Free MMAE payload was also tested, and similarly dissolved in 25 mM Histidine 10% sucrose pH 7 and one or more of the following doses, 0.6, 0.06 mg/kg, were administered to the mice i.v. at a QW×4 schedule. Tumor sizes were measured twice weekly in two dimensions using a caliper, and the volume in mm^3 calculated using the formula: V=0.5 a×b^2, where a and b are the long and short diameters of the tumor, respectively. TGI was calculated for each group using the formula: TGI (%)=[1−(Ti−T0)/(Vi−V0)]×100; where Ti is the average tumor volume of a treatment group on a given day, T0 is the average tumor volume of the treatment group on the first day of treatment, Vi is the average tumor volume of the vehicle control group on the same day with Ti, and V0 is the average tumor volume of the vehicle group on the first day of treatment.

[2] = Murine hematotoxicity assay; assay type: in vivo, BALB/c mice; details: 3 mg/kg i.v. QW×4, compared to vehicle or MMAE treatment
Experimental: Murine hematotoxicity experiments were conducted at Charles River Laboratories and the care and use of animals was conducted in accordance with the regulations of the Association for Assessment and Accreditation of Laboratory Animal Care (AAALAC). Wild type BALB/c, female, 7-8 weeks, weighing approximately 18-22 g were randomized and dosed intravenously with control or test articles at a QW×4 schedule. Dosing volume was adjusted based on body weight and was administered at 10 mL/Kg. PDCs were dissolved in 25 mM Histidine 10% sucrose pH 7 and 3 mg/kg was administered. Free MMAE payload was also tested, and similarly dissolved in 25 mM Histidine 10% sucrose pH 7 and administered to the mice at a dose of […] by i.v. injection at a QW×4 schedule. 3 days following each dose, 150 μL of whole blood was collected via submandibular method and placed in K2 EDTA tubes stored on ice. Blood neutrophil counts were performed on the day of collection by IDEXX labs. Body weights were recorded twice a week until study endpoint.
As outlined in the material and methods of Example 1, wild type BALB/c, female, 7-8 weeks, weighing approximately 18-22 g were randomized and dosed intravenously with control or test articles at a QW×4 schedule. Dosing volume was adjusted based on body weight and was administered at 10 ml/Kg. […] Free MMAE payload was also tested, and similarly dissolved in 25 mM Histidine 10% sucrose pH 7 and administered to the mice at a dose of […] by i.v. injection at a QW×4 schedule. 3 days following each dose, 150 μL of whole blood was collected via submandibular method and placed in K2 EDTA tubes stored on ice. Blood neutrophil counts were performed on the day of collection by IDEXX labs. Body weights were recorded twice a week until study endpoint.

SORT1 = biological target: T1, SORT1; test: Direct binding in fluorescence polarization (FP), FAM-labeled peptides
Experimental: Peptides were dissolved into stock solutions in water, then brought up to final concentrations in 1×PBS, pH 7.4 and tested in DLS and CD (methods above) to ensure the peptides were soluble. Peptide concentrations were determined by quantifying the dye using the nanodrop and dye specific extinction coefficient at a specific wavelength. For FAM labeled dyes, the extinction coefficient 83000 cm^−1 M^−1 was used.
FAM labeled peptides were diluted to 1 μM in FP buffer (1×PBS, pH 7.4, 0.1% Tween-20) and serially diluted two-fold for a 12-point series to determine concentration at which the fluorescence intensity was 10,000 RFU and the polarization of the peptide was consistent. A 10× working solution would thus be 10× the concentration of FAM labeled peptide that satisfied the above criteria. […]
A 10× working solution of FAM-labeled peptides was prepared in the FP buffer (1×PBS, pH 7.4, 0.1% Tween-20). […] The 384-well plate was then centrifuged 1 min, 4000 rpm and fluorescence and polarization of dye measured on a Biotek Synergy Neo2 plate reader using the following settings (Excitation 485/20, Emission 528/20, Top read, Gain: 75, Light source: Xenon Flash, Lamp Energy: Low, Standard Dynamic range, Read speed: Normal, Delay: 0 msec, Measurements/Data Point: 10, Read Height: 9 mm). […]

[3] = Dynamic light scattering (DLS) solubility/aggregation; assay type: physicochemical; details: working concentrations (250 nM, PBS, pH 7.4)
Experimental: Samples were spun down on a bench top centrifuge, 15 minutes, 15,000 rpm, room temperature, to pellet any aggregated peptide/dust before taking a measurement. Visual inspection of the tubes was used to identify if any large pellets were formed, which is indicative of large aggregates. […] The plate was then transferred and read on the DLS instrument (Wyatt Technology DynaPro Plate Reader III) at 25° C.

[4] = biological target: T2, Human SORT1 (78-755)-His …; test: SPR (Biacore 8K), SORT1 amine-coupled to CM5 chip, PDC as analyte, 1:1 kinetic model
Experimental: SPR analysis was performed on Series S CM5 chips (Cytiva) using a Biacore 8K instrument (Cytiva). Sensorgrams were double-referenced by subtracting the response on both a reference flow cell and a blank sample. Human SORT1 (78-755)-His (Acrobiosystems) was diluted to 60 μg/mL in 10 mM sodium acetate pH 4.5 buffer and immobilized onto Series S CM5 chips using amine coupling at a flow rate of 10 μL/min for 45 s. The final immobilization level of SORT1 was between 2200-2600 RU.
For the multi-cycle kinetics analysis runs, a running buffer of 1×PBS pH 7.4, 0.005% Tween-20 was used. Five start-up cycles and a blank cycle preceded each analysis run. The runs were performed by sequential injections of analyte (0-25 nM) with a 150 seconds (s) association and 300 s dissociation at a flow rate of 30 μL/min, followed by a regeneration with 2 M MgCl₂ for 200 s at a flow rate of 10 μL/min. The kinetic rate constants (kₐ and kd) and the equilibrium binding constant (Kd) were calculated using a 1:1 kinetic binding model on the Biacore Insight Evaluation Software (Cytiva).

Molecule | tumor growth inhibited relative to vehicle (MDA-MB-231 tumor cells) | body weight loss (MDA-MB-231 tumor cells) | blood neutrophil counts [2] | solubility (DLS) [3] | further results
CC[C@H](C)[C@@H]([C@@H](CC(=O)N1CCC[C@H]1[C@H](OC)[C@@H](C)C(=O)N[C@H](C)[C@@H](O)c1ccccc1)OC)N(C)C(=O)[C@@H](NC(=O)[C@H](C(C)C)N(C)C(=O)OCc1ccc(NC(=O)[C@H](CCCNC(N)=O)NC(=O)[C@@H](NC(=O)CCCC(=O)NCCC(=O)N(C)CC(=O)N(C)CC(=O)N(C)CC(=O)N(C)CC(=O)N[C@@H](C)C(=O)N2CCC[C@H]2C(=O)N[C@@H](CCCNC(=N)N)C(=O)N[C@@H](Cc2c[nH]c3ccccc23)C(=O)N[C@@H](CC(=O)O)C(=O)N[C@@H](C)C(=O)N2CCC[C@H]2C(=O)N[C@@H](CC(C)C)C(=O)N[C@@H](CCCNC(=N)N)C(=O)N[C@@H](CC(=O)O)C(=O)N2CCC[C@H]2C(=O)N[C@@H](C)C(=O)N[C@@H](CC(C)C)C(=O)N[C@@H](CCCNC(=N)N)C(=O)N[C@@H](CCC(N)=O)C(=O)N[C@H](C(=O)N[C@@H](CC2CCC2)C(=O)O)C(C)(C)C)C(C)C)cc1)C(C)C [Arb-SAR-Q15-PDC] | 98% | body weight loss tracked each other | reduced neutrophil counts |  | half-life at 2 μM [1]: 49.7 min
CCCC[C@@H]1NC(=O)[C@H](CCCNC(=N)N)NC(=O)[C@H](CCCCNC(=O)CN(C)C(=O)CN(C)C(=O)CN(C)C(=O)CN(C)C(=O)CCNC(=O)CCCC(=O)N[C@H](C(=O)N[C@@H](CCCNC(N)=O)C(=O)Nc2ccc(COC(=O)N(C)[C@H](C(=O)N[C@H](C(=O)N(C)[C@@H]([C@@H](C)CC)[C@@H](CC(=O)N3CCC[C@H]3[C@H](OC)[C@@H](C)C(=O)N[C@H](C)[C@@H](O)c3ccccc3)OC)C(C)C)C(C)C)cc2)C(C)C)NC(=O)[C@H](CC(N)=O)NC(=O)[C@H](CCC(=O)O)NC(=O)[C@@H](NC(=O)[C@H](Cc2c[nH]c3ccccc23)NC(=O)[C@H](CCCNC(=N)N)NC(C)=O)CSSC[C@@H](C(=O)N[C@@H](CCCNC(=N)N)C(=O)N[C@@H](CCC(N)=O)C(=O)N[C@H](C(=O)N[C@@H](CC(C)(C)C)C(=O)O)C(C)(C)C)NC(=O)[C@H]([C@@H](C)O)NC(=O)[C@H](Cc2ccccc2)NC1=O [Arb_cyclic_G23-PDC] | 68% | body weight loss tracked each other | reduced neutrophil counts |  | 
CC(C)C[C@H](NC(=O)[C@H](CCCNC(=N)N)NC(=O)[C@H](CC(C)C)NC(=O)[C@H](C)NC(=O)[C@H](CC(C)C)NC(=O)[C@H](CCCNC(=N)N)NC(=O)[C@H](CCC(N)=O)NC(=O)[C@H](CC(C)C)NC(=O)[C@H](C)NC(=O)[C@@H]1CCCN1C(=O)[C@H](Cc1c[nH]c2ccccc12)NC(=O)[C@@H]1CCCN1C(=O)[C@H](C)NC(=O)[C@H](CCCNC(=N)N)NC(=O)[C@@H]1CCCN1C(=O)[C@H](CC(=O)O)NC(=O)[C@@H](N)CC(=O)O)C(=O)O [PRGN_RL] |  |  |  | good solubility | poorer affinity than the WT sequence (PRGN_WT) (SORT1; binding to SORT1-Ag): ~7 ×
CC(C)C[C@H](NC(=O)[C@H](CC(C)C)NC(=O)[C@H](CC(=O)O)NC(=O)[C@H](CCCNC(=N)N)NC(=O)[C@@H]1CCCN1C(=O)[C@H](CC(C)C)NC(=O)[C@H](CCCNC(=N)N)NC(=O)[C@H](C)NC(=O)[C@H](CC(C)C)NC(=O)[C@H](CCCNC(=N)N)NC(=O)[C@@H](N)CCC(N)=O)C(=O)N[C@@H](C)C(=O)N[C@@H](Cc1c[nH]c2ccccc12)C(=O)N1CCC[C@H]1C(=O)N1CCC[C@H]1C(=O)N[C@@H](C)C(=O)N[C@@H](CC(=O)O)C(=O)O [PRGN_scr, reference compound] |  |  |  | good solubility | affinity in FP (direct binding to SORT1-Ag) (SORT1; direct titration, FAM-labeled peptide): no binding
B1 |  |  |  |  | Kd [4]: 0.89 nM

From patent US20240285785A1, “TARGETING SORTILIN” (priority 2022, published 2024)
